Measurements as given in doi:10.1101/2020.03.13.990150.

Target: Saccharomyces cerevisiae (Sc) Tim9 (Saccharomyces cerevisiae)
Assay: SEC

stoichiometry N: 2
Substance: Saccharomyces cerevisiae (Sc) Tim9 (natural protein)
